From doi:10.1101/2024.11.20.624454 (bioRxiv, 2024)

Target: T1, Mus musculus SPO11, MBP-tagged (Mus musculus, UniProt Q9WTK8 1-396)
T1 sequence (looked up): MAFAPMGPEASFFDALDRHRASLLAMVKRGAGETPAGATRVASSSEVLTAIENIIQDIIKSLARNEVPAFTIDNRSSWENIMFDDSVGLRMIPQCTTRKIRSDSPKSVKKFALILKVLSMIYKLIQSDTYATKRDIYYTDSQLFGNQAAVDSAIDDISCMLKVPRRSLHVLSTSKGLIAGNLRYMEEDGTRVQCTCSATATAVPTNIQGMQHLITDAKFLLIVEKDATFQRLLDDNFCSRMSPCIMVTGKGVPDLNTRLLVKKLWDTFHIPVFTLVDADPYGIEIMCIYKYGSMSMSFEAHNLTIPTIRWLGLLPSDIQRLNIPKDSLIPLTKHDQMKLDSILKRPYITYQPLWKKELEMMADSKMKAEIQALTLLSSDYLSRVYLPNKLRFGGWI
Experiment: SEC-MALS

B1: Mus musculus TOP6BL, HisFlag-tagged (natural protein, UniProt J3QMY9 1-579, looked up)
chain: MERTALAVCEILRYLIIHWKCEAGTAKGTLLDGQLVISIEALRSKHLPDSLHCIITIASTRSVYGGLNFKKFLQEIQPALPRLSAKLALASEEGGRSQDASGIAPCQVTFEVDENSQSLMTDCLVIKHFLRKIIIVHHKLKFSFSVAVNGTLSAETFGAENEPTLRLDNGVTLVVGFQRYVSKPKLNWSEAHCSRIHPVLGHPAPLFIPDAKADTGLLGELTLTPAAALCPSPKGFSSQLCRISSVSIFLYGPLGLPLLSSDQDQPSTAVFRDTSYFIDWKKYNLFMVPNLDLNLDTQSVLPDVNYKAESPEGNQSQNMNAQGPALLLFLFVDFQSDVPVQQAKIWGLHTLLTAHLSAILSESRSTVQQSIQSAVDQVWQLYHHDAKTQQRLQASLSVAVNSIMSVLTGSTRSSFRKTCLQALEAADTQEFGVKLHRIFYDITQHQFLKHCSCDTEQHLTPEKNISAQNTKDQHKNIAQEFPEESIGQAENKRPKRGSPNHGREESRVLGSARDRSPPKSATRDRELTEVSLTARGSQTQAAHGRAQAAEAASPAGGLEDLWLQEVSNLSEWLNPGHRS
Question: How did the “stoichiometry N” value turn out when B1 was run?
Answer: 1
